Values joined by “and” are separate entries in the source; they are usually repeats but may differ in a detail not shown here. Equal values may be shown once.
How the values were obtained:
RAGE/FC Chimera [1] = target: T1, RAGE/FC Chimera (UniProt Q15109 23-342); experiment: direct bind ELISA, antigen on plate; parent antibody
T1 construct: extracellular domain; Bought reagent; not shown: Fc region of the bought chimera
Procedure: (§1) Enzyme Linked Immunosorbent Assays to screen for antibodies that bind a desired target antigen were performed as follows. High bind ELISA plates (Corning Costar #3369, Acton, Mass.) were coated with 100 μL/well of 10 μg/ml of desired target antigen (R&D Systems, Minneapolis, Minn.) or desired target antigen extra-cellular domain/FC fusion protein (R&D Systems, Minneapolis, Minn.) or monoclonal mouse anti-polyHistidine antibody (R&D Systems # MAB050, Minneapolis, Minn.) in phosphate buffered saline (10×PBS, Abbott Bioresearch Center, Media Prep# MPS-073, Worcester, Mass.) overnight at 4° C. Plates were washed four times with PBS containing 0.02% Tween 20. Plates were blocked by the addition of 300 μL/well blocking solution (non-fat dry milk powder, various retail suppliers, diluted to 2% in PBS) for 1/2 hour at room temperature. Plates were washed four times after blocking with PBS containing 0.02% Tween 20.
(§2) One hundred microliters of antibody or DVD-Ig preparations diluted in blocking solution as described above was added to the desired target antigen plate or desired target antigen/FC fusion plate or the anti-polyHistidine antibody/His tagged desired target antigen plate prepared as described above and incubated for 1 hour at room temperature. Wells were washed four times with PBS containing 0.02% Tween 20.
(§3) One hundred microliters of 10 ng/mL goat anti-human IgG-FC specific HRP conjugated antibody (Southern Biotech #2040-05, Birmingham, Ala.) was added to each well of the desired target antigen plate or anti-polyHistidine antibody/Histidine tagged desired target antigen plate. Alternatively, one hundred microliters of 10 ng/mL goat anti-human IgG-kappa light chain specific HRP conjugated antibody (Southern Biotech #2060-05 Birmingham, Ala.) was added to each well of the desired target antigen/FC fusion plate and incubated for 1 hour at room temperature. Plates were washed 4 times with PBS containing 0.02% Tween 20.

[2] = target: T2, Repulsive Guidence Molecule A (UniProt Q96B86 48-422, limits assumed); experiment: as above
T2 construct: Bought reagent for the ELISA; also called RGM-A; RGMa
T2 sequence (looked up): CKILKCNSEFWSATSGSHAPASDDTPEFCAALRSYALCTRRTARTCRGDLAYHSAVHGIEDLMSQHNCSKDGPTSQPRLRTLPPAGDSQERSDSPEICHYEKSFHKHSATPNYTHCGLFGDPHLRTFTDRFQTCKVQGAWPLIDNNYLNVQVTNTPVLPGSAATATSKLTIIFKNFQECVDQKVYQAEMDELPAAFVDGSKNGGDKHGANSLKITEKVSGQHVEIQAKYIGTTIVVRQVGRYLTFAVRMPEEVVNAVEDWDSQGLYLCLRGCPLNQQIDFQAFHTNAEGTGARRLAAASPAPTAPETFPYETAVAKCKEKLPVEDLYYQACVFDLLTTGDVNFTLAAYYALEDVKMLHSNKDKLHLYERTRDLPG
Procedure: as §1, §2, §3

[3] = target: T2, Repulsive Guidence Molecule A; experiment: SPR (Biacore), antibody captured; parent antibody
Procedure: The BIACORE assay (Biacore, Inc, Piscataway, N.J.) determines the affinity of antibodies or DVD-Ig with kinetic measurements of on-rate and off-rate constants. Binding of antibodies or DVD-Ig to a target antigen (for example, a purified recombinant target antigen) is determined by surface plasmon resonance-based measurements with a Biacore® 1000 or 3000 instrument (Biacore® AB, Uppsala, Sweden) using running HBS-EP (10 mM HEPES [pH 7.4], 150 mM NaCl, 3 mM EDTA, and 0.005% surfactant P20) at 25° C. All chemicals are obtained from Biacore® AB (Uppsala, Sweden) or otherwise from a different source as described in the text. For example, approximately 5000 RU of goat anti-mouse IgG, (Fcγ), fragment specific polyclonal antibody (Pierce Biotechnology Inc, Rockford, Ill.) diluted in 10 mM sodium acetate (pH 4.5) is directly immobilized across a CMS research grade biosensor chip using a standard amine coupling kit according to manufacturer's instructions and procedures at 25 μg/ml. Unreacted moieties on the biosensor surface are blocked with ethanolamine. Modified carboxymethyl dextran surface in flowcell 2 and 4 is used as a reaction surface. Unmodified carboxymethyl dextran without goat anti-mouse IgG in flow cell 1 and 3 is used as the reference surface. For kinetic analysis, rate equations derived from the 1:1 Langmuir binding model are fitted simultaneously to association and dissociation phases of all eight injections (using global fit analysis) with the use of Biaevaluation 4.0.1 software. Purified antibodies or DVD-Ig are diluted in HEPES-buffered saline for capture across goat anti-mouse IgG specific reaction surfaces. Antibodies or DVD-Ig to be captured as a ligand (25 μg/ml) are injected over reaction matrices at a flow rate of 5 μl/min. […] The equilibrium dissociation constant (M) of the reaction between antibodies or DVD-Igs and the target antigen is then calculated from the kinetic rate constants by the following formula: KD=koff/kₒₙ. Binding is recorded as a function of time and kinetic rate constants are calculated.

IL-18 = target: T3, IL-18 (UniProt Q14116 37-193, limits assumed); experiment: direct bind ELISA, antigen on plate; N-terminal VD
T3 construct: Bought reagent
Procedure: as §1, §2, §3

Aβ1-42 [4] = target: T4, Aβ1-42 (UniProt P05067 672-713); experiment: Aβ 1-42 ELISA, peptide on plate; C-terminal VD
T4 construct: domain: Aβ1-42; Aβ 1-42 is a part of it; also called A beta
Procedure: (§4) ELISA assays were performed to screen for antibodies that bind a desired target antigen as follows. Maxisorb NUNC Immuno plates were coated with 100 μL/well of 1 μg/ml of Aβ1-42 diluted in coating buffer overnight at 6° C. Plates were washed three times with PBS containing 0.02% Tween 20. Blocking solution was prepared by dissolving the blocking reagent for ELISA (Roche) in 100 mL water and then diluted further 1:10 prior to use. Plates were blocked by the addition of 265 μL/well blocking solution for 2 hours at room temperature. Plates were washed three times after blocking with PBS containing 0.02% Tween 20.
(§5) Antibody or DVD-Igs were diluted to 100 ng/μL in PBST+0.5% BSA and serially diluted 1:3. One hundred microliters of antibody or DVD-Ig preparations was added to the plate and incubated for 2 hour at room temperature. Wells were washed three times with PBS containing 0.02% Tween 20.
(§6) One hundred microliters of TMB solution was added to each well and incubated for 10 minutes. TMB solution was prepared by mixing 20 mL 100 mM natrium-acetate pH4.9 with 200 μL TMB solution (Roche #92817060) and 29.5 μL 3% H₂O₂. The reaction was stopped by the addition of 50 μL 1N sulphuric acid. Plates were read spectrophotometrically at a wavelength of 450 nm.

IGF-II = target: T5, IGF-II (UniProt P01344 25-91); experiment: direct bind ELISA, antigen on plate; N-terminal VD
T5 construct: Bought reagent; also called IGF2; IGF-2
Procedure: as §1, §2, §3

IGF-I = target: T6, IGF-I (UniProt P05019 49-118); experiment: direct bind ELISA, antigen on plate; N-terminal VD
T6 construct: Bought reagent; also called IGF1; IGF-1
Procedure: as §1, §2, §3

RAGE/FC Chimera [5] = target: T1, RAGE/FC Chimera; experiment: direct bind ELISA, antigen on plate; N-terminal VD
Procedure: as §1, §2, §3

Aβ1-42 [6] = target: T4, Aβ1-42; experiment: Aβ 1-42 ELISA, peptide on plate; N-terminal VD
Procedure: as §4, §5, §6

RAGE/FC Chimera [7] = target: T1, RAGE/FC Chimera; experiment: direct bind ELISA, antigen on plate; C-terminal VD
Procedure: as §1, §2, §3

Recombinant Human IL-1β = target: T7, Recombinant Human IL-1β (human, UniProt P01584 117-269); experiment: direct bind ELISA, antigen on plate; parent antibody
T7 construct: Bought reagent; also called IL-1B
Procedure: as §1, §2, §3

T1 sequence (Q15109 23-342, change not shown): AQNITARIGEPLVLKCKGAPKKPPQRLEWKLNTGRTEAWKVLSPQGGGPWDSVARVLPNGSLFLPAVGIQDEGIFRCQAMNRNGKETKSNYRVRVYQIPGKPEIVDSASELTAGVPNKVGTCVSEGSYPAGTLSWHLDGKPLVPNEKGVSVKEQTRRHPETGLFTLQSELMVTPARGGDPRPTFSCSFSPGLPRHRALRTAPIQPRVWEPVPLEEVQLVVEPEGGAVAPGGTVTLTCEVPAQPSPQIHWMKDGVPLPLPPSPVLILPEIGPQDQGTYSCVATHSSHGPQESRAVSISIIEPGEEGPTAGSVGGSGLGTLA

B1: AB060 (antibody, human IgG1, kappa, V domains shown)
VH: QIQLVQSGPELKKPGETVKISCKASGYTFTNFGMNWVKQAPGKGLKWMGYINTNTGESIYSEEFKGRFAFSLETSASTAYLQINNLKNEDTATYFCARSRMVTAYGMDYWGQGTSVTVSS
VL: DIVMTQSQKFMSTSVGDRVSITCKASQNVGTAVAWYQQRPGQSPKLLIFSASNRYTGVPDRFTGSGSGTDFTLTLSNMQPEDLADYFCQQYSSYPLTFGVGTKLELKR
RAGE/FC Chimera [1]
  EC50: 1690 pM and 640 pM

B2: AB059 (antibody, human IgG1, kappa, V domains shown)
VH: EVQLVESGGGLVQPGSSLKLSCVASGFTFSNYGMNWIRQAPKKGLEWIGMIYYDSSEKHYADSVKGRFTISRDNSKNTLYLEMNSLRSEDTAIYYCAKGTTPDYWGQGVMVTVSS
VL: DVVLTQTPVSLSVTLGDQASMSCRSSQSLEYSDGYTFLEWFLQKPGQSPQLLIYEVSNRFSGVPDRFIGSGSGTDFTLKISRVEPEDLGVYYCFQATHDPLTFGSGTKLEIKR
notes: also called RGMa parent antibody; RGMA parent antibody
[2]
  EC50: 130 pM
[3]
  Kd: 640 pM
  koff: 0.000609 s⁻¹
  kon: 952000 M⁻¹ s⁻¹

B3: DVD232 (bispecific antibody, human IgG1, kappa)
heavy: not shown
light: EIVMTQSPATLSVSPGERATLSCRASESISSNLAWYQQKPGQAPRLFIYTASTRATDIPARFSGSGSGTEFTLTISSLQSEDFAVYYCQQYNNWPSITFGQGTRLEIKRTVAAPDVVMTQSPLSLPVTPGEPASISCKSSQSLLDSDGKTYLNWLLQKPGQSPQRLIYLVSKLDSGVPDRFSGSGSGTDFTLKISRVEAEDVGVYYCWQGTHFPRTFGQGTKVEIKRTVAAPSVFIFPPSDEQLKSGTASVVCLLNNFYPREAKVQWKVDNALQSGNSQESVTEQDSKDSTYSLSSTLTLSKADYEKHKVYACEVTHQGLSSPVTKSFNRGEC
notes: DVD-Ig; also called VD232H/VD232L
IL-18
  EC50: 680 pM
Aβ1-42 [4]
  EC50: 48 pM

B4: DVD230 (bispecific antibody, human IgG1, kappa)
heavy: not shown
light: QSVLTQPPSVSAAPGQKVTISCSGSSSNIENNHVSWYQQLPGTAPKLLIYDNNKRPSGIPDRFSGSKSGTSATLGITGLQTGDEADYYCETWDTSLSAGRVFGGGTKLTVLGQPKAAPDVVMTQSPLSLPVTPGEPASISCKSSQSLLDSDGKTYLNWLLQKPGQSPQRLIYLVSKLDSGVPDRFSGSGSGTDFTLKISRVEAEDVGVYYCWQGTHFPRTFGQGTKVEIKRTVAAPSVFIFPPSDEQLKSGTASVVCLLNNFYPREAKVQWKVDNALQSGNSQESVTEQDSKDSTYSLSSTLTLSKADYEKHKVYACEVTHQGLSSPVTKSFNRGEC
notes: DVD-Ig; also called VD230H/VD230L
IGF-II
  EC50: 2440 pM
IGF-I
  EC50: 4840 pM
Aβ1-42 [4]
  EC50: 39 pM

B5: DVD293 (bispecific antibody, human IgG1, kappa)
heavy: not shown
light: DIVMTQSQKFMSTSVGDRVSITCKASQNVGTAVAWYQQRPGQSPKLLIFSASNRYTGVPDRFTGSGSGTDFTLTLSNMQPEDLADYFCQQYSSYPLTFGVGTKLELKRTVAAPDVVMTQSPLSLPVTPGEPASISCKSSQSLLDSDGKTYLNWLLQKPGQSPQRLIYLVSKLDSGVPDRFSGSGSGTDFTLKISRVEAEDVGVYYCWQGTHFPRTFGQGTKVEIKRTVAAPSVFIFPPSDEQLKSGTASVVCLLNNFYPREAKVQWKVDNALQSGNSQESVTEQDSKDSTYSLSSTLTLSKADYEKHKVYACEVTHQGLSSPVTKSFNRGEC
notes: DVD-Ig; also called VD293H/VD293L
RAGE/FC Chimera [5]
  EC50: 7320 pM
Aβ1-42 [4]
  EC50: 48 pM

B6: DVD233 (bispecific antibody, human IgG1, kappa)
heavy: not shown
light: DVVMTQSPLSLPVTPGEPASISCKSSQSLLDSDGKTYLNWLLQKPGQSPQRLIYLVSKLDSGVPDRFSGSGSGTDFTLKISRVEAEDVGVYYCWQGTHFPRTFGQGTKVEIKRTVAAPQIVLIQSPAIMSASPGEKVTMTCSASSSVSYMYWYQQKPGSSPRLLIYDTSNLASGVPVRFSGSGSGTSYSLTISRMEAEDAATYYCQQWSGYPYTFGGGTKLEIKRTVAAPSVFIFPPSDEQLKSGTASVVCLLNNFYPREAKVQWKVDNALQSGNSQESVTEQDSKDSTYSLSSTLTLSKADYEKHKVYACEVTHQGLSSPVTKSFNRGEC
notes: DVD-Ig; also called VD233H/VD233L
Aβ1-42 [6]
  EC50: 13 pM

B7: DVD294 (bispecific antibody, human IgG1, kappa)
heavy: not shown
light: DVVMTQSPLSLPVTPGEPASISCKSSQSLLDSDGKTYLNWLLQKPGQSPQRLIYLVSKLDSGVPDRFSGSGSGTDFTLKISRVEAEDVGVYYCWQGTHFPRTFGQGTKVEIKRTVAAPDIVMTQSQKFMSTSVGDRVSITCKASQNVGTAVAWYQQRPGQSPKLLIFSASNRYTGVPDRFTGSGSGTDFTLTLSNMQPEDLADYFCQQYSSYPLTFGVGTKLELKRTVAAPSVFIFPPSDEQLKSGTASVVCLLNNFYPREAKVQWKVDNALQSGNSQESVTEQDSKDSTYSLSSTLTLSKADYEKHKVYACEVTHQGLSSPVTKSFNRGEC
notes: DVD-Ig; also called VD294H/VD294L
RAGE/FC Chimera [7]
  EC50: 1530 pM
Aβ1-42 [6]
  EC50: 14 pM

B8: AB032 (antibody, human IgG1, kappa, V domains shown)
VH: QVQLVESGGGVVQPGRSLRLSCAASGFTFSVYGMNWVRQAPGKGLEWVAIIWYDGDNQYYADSVKGRFTISRDNSKNTLYLQMNGLRAEDTAVYYCARDLRTGPFDYWGQGTLVTVSS
VL: EIVLTQSPDFQSVTPKEKVTITCRASQSIGSSLHWYQQKPDQSPKLLIKYASQSFSGVPSRFSGSGSGTDFTLTINSLEAEDAAAYYCHQSSSLPFTFGPGTKVDIKR
notes: also called IL-1β parent antibody
Recombinant Human IL-1β
  EC50: 5270 pM

Reference: US20150183867A1 (AbbVie / Abbott, published 2015)
